Laboratory results published in patent publication US8357523B2, “Beta-glucosidase variant enzymes and related polynucleotides” (Codexis, Inc., priority 2009, dated 2013).

Assay: High throughput cellobiose assay: fold improvement in cellobiase activity of CelA variants over a control enzyme (Tables 2A-2D, 3, 5, 6, 7)
Assay type: biochemical
Settings: 3.3 g/l cellobiose, 55° C. and pH 6.0

B1: 198 (protein)
chain: STAIAQEGAAPAAILHPEKWPRPATQRLIDPAVEKRVDALLKQLSVEEKVGQVIQGDIGTITPEDLRKYPLGSILAGGDSGPNGDDRAPPKEWLDLADAFYRVSLEKRPGHTPIPVLFGIDAVHGHGNIGSATIFPHNIALGMTRDPELLRRIGEVTAEEMAATGIDWTFAPALSVVRDDRWGRTYEGFSEDPEIVASYSAAIVEGVQGKFGPKDFMAPGRIVASAKHFLADGGTDQGRDQGDARISEDELIRIHNAGYPPAIDAGVLTVMASFSSWQGIKHHGHKQLLTDVLKGQMGFNGFIVGDWNAHDQVPGCTKFNCPTSLIAGLDMYMAADSWKQLYENTLAQVKDGTIPMARLDDAVRRILRVKVLAGLFEKPAPKDRPGLPGLETLGSPEHRAVGREAVRKSLVLLKNDKGTLPLSPKARVLVAGDGADNIGKQSGGWTISWQGTGNRNDEFPGATSILGGIRDAVADAGGSVEFDVPGQYKTKPDVAIVVFGEEPYAEFQGDVETLEYQPDQKQDLALLKKLKDQGIPVVAVFLSGRPMWVNPELNASDAFVAAWLPGTEGGGVADVLFTDKAGKVQHDFAGKLSYSWPRTAAQTTVNRGDADYNPLFAYGYGLTYKDKSKVGTLPEESGVPAEARQNAGIYFRAGALRLPGRFL
Fold improvement over Control Variant No. 5 from Table 2A: ++ (++ = 1.1 to 6 fold improvement over control Variant No. 2)

B2: 202 (protein)
chain: STAIAQEGAAPAAILHPEKWPRPATQRLIDPAVEKRVDALLKQLSVEEKVGQVIQGDIGTITPEDLRKYPLGSILAGGDSGPNGDDRAPPKEWLDLADAFYRVSLEKRPGHTPIPVLFGIDAVHGHGNIGSATIFPHNIALGMTRDPELLRRIGEVTAEEMAATGIDWTFAPALSVVRDDRWGRTYEGFSEDPEIVASYSAAIVEGVQGKFGSKDFMAPGRIVASAKHFLADGGTDQGRDQGDARISEDELIRIHNAGYPPAIDAGVLTVMASFSSWQGIKHHGHKQLLTDVLKGQMGFNGFIVGDWNAHDQVPGCTKFNCPTSLIAGLDMYMAADSWKQLYENTLAQVKDGTIPMARLDDAVRRILRVKVLAGLFEKPAPKDRPGLPGLETLGSPEHRAVGREAVRKSLVLLKNDKGTLPLSPKARVLVAGDGADNIGKQSGGWTISWQGTGNRNDEFPGATSILGGIRDAVADAGGSVEFDVAGQYKTKPDVAIVVFGEEPYAEFQGDVETLEYQPDQKQDLALLKKLKDQGIPVVAVFLSGRPMWVNPELNASDAFVAAWLPGTEGPGVADVLFTDKAGKVQHDFAGKLSYSWPRTAAQTTVNRGDADYNPLFAYGYGLTYKDKSKVGTLPEESGVPAEARQNAGIYFRAGALRLPGRFL
Fold improvement over Control Variant No. 5 from Table 2A: ++ (++ = 1.1 to 6 fold improvement over control Variant No. 2)

B3: 204 (protein)
chain: STAIAQEGAAPAAILHPEKWPRPATRRLIDPAVEKRVDALLKQLSVEEKVGQVIQGDIGTITPEDLRKYPLGSILAGGDSGPNGDDRAPPKEWLDLADAFYRVSLEKRPGHTPIPVLFGIDAVHGHGNIGSATIFPHNIALGMTRDPELLRRIGEVTAEEMAATGIDWTFAPALSVVRDDRWGRTYEGFSEDPEIVASYSAAIVEGVQGKFGSKDFMAPGRIVASAKHFLADGGTDQGRDQGDARISEDELIRIHNAGYPPAIDAGVLTVMASFSSWQGIKHHGHKQLLTDVLKGQMGFNGFIVGDWNAHDQVPGCTKFNCPTSLIAGLDMYMAADSWKQLYENTLAQVKDGTIPMARLDDAVRRILRVKVLAGLFEKPAPKDRPGLPGLETLGSPEHRAVGREAVRKSLVLLKNDKGTLPLSPKARVLVAGDGADNIGKQSGGWTISWQGTGNRNDEFPGATSILGGIRDAVADAGGSVEFDVAGQYKTKPDVAIVVFGEEPYAEFQGDVETLEYQPDQKQDLALLKKLKDQGIPVVAVFLSGRPMWVNPELNASDAFVAAWLPGTEGGGVADVLFTDKAGKVQHDFAGKLSYSWPRTAAQTPVNRGDADYNPLFAYGYGLTYKDKSKVGTLPEESGVPAEARQNAGIYFRAGALRLPGRFL
Fold improvement over Control Variant No. 5 from Table 2A: ++ (++ = 1.1 to 6 fold improvement over control Variant No. 2)

B4: 203 (protein)
chain: STAIAQEGAAPAAILHPEKWPRPATQRLIDPAVEKRVDALLKQLSVEEKVGQVIQGDIGTITPEDLRKYPLGSILAGGDSGPNGDDRAPPKEWLDLADAFYRVSLEKRPGHTPIPVLFGIDAVHGHGNIGSATIFPHNIALGMTRDPELLRRIGEVTAEEMAATGIDWTFAPALSVVRDDRWGRTYEGFSEDPEIVASYSAAIVEGVQGKFGSKDFMAPGRIVASAKHFLADGGTDQGRDQGDARISEDELIRIHNAGYPPAIDAGVLTVMASFSSWQGIKHHGHKQLLTDVLKGQMGFNGFIVGDWNAHDQVPGCTKFNCPTSLIAGLDMYMAADSWKQLYENTLAQVKDGTIPMARLDDAVRRILRVKVLAGLFEKPAPKDRPGLPGLETLGSPEHRAVGREAVRKSLVLLKNDKGTLPLSPKARVLVAGDGADNIGKQSGGWTISWQGTGNRNDEFPGATSILGGIRDAVADAGGSVEFDVPGQYKTKPDVAIVVFGEEPYAEFQGDVETLEYQPDQKQDLALLKKLKDQGIPVVAVFLSGRPMWVNPELNASDAFVAAWLPGTEGGGVADVLFTDKAGKVQHDFAGKLSYSWPRTAAQTTVNRGDADYNPLFAYGYGLTYKDKSKVGTLPEESGVPAEARQNAGIYFRAGALRLPGRFL
Fold improvement over Control Variant No. 5 from Table 2A: ++ (++ = 1.1 to 6 fold improvement over control Variant No. 2)

B5: 200 (protein)
chain: STAIAQEGAAPAAILHPEKWPRPATQRLIDPAVEKRVDALLKQLSVEEKVGQVIQGDIGTITPEDLRKYPLGSILAGGDSGPNGDDRAPPKEWLDLADAFYRVSLEKRPGHTPIPVLFGIDAVHGHGNIGSATIFPHNIALGMTRDPELLRRIGEVTAEEMAATGIDWTFAPALSVVRDDRWGRTYEGFSEDPEIVASYSAAIVEGVQGKFGSKDFMAPGRIVASAKHFLADGGTDQGRDQGDARISEDELIRIHNAGYPPAIDAGVLTVMASFSSWQGIKHHGHKQLLTDVLKGQMGFNGFIVGDWNAHDQVPGCTKFNCPTSLIAGLDMYMAADSWKQLYENTLAQVKDGTIPMARLDDAVRRILRVKVLAGLFEKPAPKDRPGLPGLETLGSPEHRAVGREAVRKSLVLLKNDKGTLPLSPKARVLVAGDGADNIGKQSGGWTISWQGTGNRNDEFPGATSILGGIRDAVADAGGSVEFDVAGQYKTKPDVAIVVFGEEPYAEFQGDVETLEYQPDQKQDLALLKKLKDQGIPVVAVFLSGRPMWVNPELNASDAFVAAWLPGTEGGGVADVLFTDKAGKVQHDFAGKLSYSWPRTAAQTTVNRGDADYNPLFAYGYGLTYKDKSKVGTLPEESGVPAEARQNAGIYFRAGALRLPGRFL
Fold improvement over Control Variant No. 5 from Table 2A: +++ (+++ = 6 to 13 fold improvement over control Variant No. 2)

B6: 201 (protein)
chain: STAIAQEGAAPAAILHPEKWPRPATQRLIDPAVEKRVDALLKQLSVEEKVGQVIQGDIGTITPEDLRKYPLGSILAGGDSGPNGDDRAPPKEWLDLADAFYRVSLEKRPGHTPIPVLFGIDAVHGHGNIGSATIFPHNIALGMTRDPELLRRIGEVTAEEMAATGIDWTFAPALSVVRDDRWGRTYEGFSEDPEIVASYSAAIVEGVQGKFGSKDFMAPGRIVASAKHFLADGGTDQGRDQGDARISEDELIRIHNAGYPPAIDAGVLTVMASFSSWQGIKHHGHKQLLTDVLKGQMGFNGFIVGDWNAHDQVPGCTKFNCPTSLIAGLDMYMAADSWKQLYENTLAQVKDGTIPMARLDDAVRRILRVKVLAGLFEKPAPKDRPGLPGLETLGSPEHRAVGREAVRKSLVLLKNDKGTLPLSPKARVLVAGDGADNIGKQSGGWTISWQGTGNRNDEFPGATSILGGIRDAVADAGGSVEFDVAGQYKTKPDVAIVVFGEEPYAEFQGDVETLEYQPDQKQDLALLKKLKDQGIPVVVVFLSGRPMWVNPELNASDAFVAAWLPGTEGGGVADVLFTDKAGKVQHDFAGKLSYSWPRTAAQTTVNRGDADYNPLFAYGYGLTYKDKSKVGTLPEESGVPAEARQNAGIYFRAGALRLPGRFL
Fold improvement over Control Variant No. 5 from Table 2A: ++ (++ = 1.1 to 6 fold improvement over control Variant No. 2)

B7: 199 (protein)
chain: STAIAQEGAAPAAILHPEKWPRPATQRLIDPAVEKRVDALLKQLSVEEKVGQVIQGDIGTITPEDLRKYPLGSILAGGDSGPNGDDRAPPKEWLDLADAFYRVSLEKRPGHTPIPVLFGIDAVHGHGNIGSATIFPHNIALGMTRDPELLRRIGEVTAEEMAATGIDWTFAPALSVVRDDRWGRTYEGFSEDPEIVASYSAAIVEGVQGKFGPKDFMAPVRIVASAKHFLADGGTDQGRDQGDARISEDELIRIHNAGYPPAIDAGVLTVMASFSSWQGIKHHGHKQLLTDVLKGQMGFNGFIVGDWNAHDQVPGCTKFNCPTSLIAGLDMYMAADSWKQLYENTLAQVKDGTIPMARLDDAVRRILRVKVLAGLFEKPAPKDRPGLPGLETLGSPEHRAVGREAVRKSLVLLKNDKGTLPLSPKARVLVAGDGADNIGKQSGGWTISWQGTGNRNDEFPGATSILGGIRDAVADAGGSVEFDVAGQYKTKPDVAIVVFGEEPYAEFQGDVETLEYQPDQKQDLALLKKLKDQGIPVVAVFLSGRPMWVNPELNASDAFVAAWLPGTEGGGVADVLFTDKAGKVQHDFAGKLSYSWPRTAAQTTVNRGDADYNPLFAYGYGLTYKDKSKVGTLPEESGVPAEARQNAGIYFRAGALRLPGRFL
Fold improvement over Control Variant No. 5 from Table 2A: ++ (++ = 1.1 to 6 fold improvement over control Variant No. 2)

B8: 83 (protein)
chain: STAIAQEGAAPAAILHPEKWPRPATQRLIDPAVEKRVDALLKQLSVEEKVGQVIQGDIGTITPEDLRKYPLGSILAGGNSGPNGDDRAPPKEWLDLADAFYRVSLEKRPGHTPIPVLFGIDAVHGHGNIGSATIFPHNIALGATRDPELLRRIGEVTAVEMAATGIDWTFAPALSVVRDDRWGRTYEGFSEDPEIVAAYSAAIVEGVQGKFGSKDFMAPGRAVACAKHFLADGGTDQGRDQGDARISEDELIRIHNAGYPPAIDAGVLTVMASFSSWQGIKHHGHKQLLTDVLKGQMGFNGFIVGDWNAHDQVPGCTKFNCPTSLIAGLDMYMAADSWKQLYENTLAQVKDGTIPMARLDDAVRRILRVKVLAGLFEKPAPKDRPGLPGLETLGSPEHRAVGREAVRKSLVLLKNDKGTLPLSPKARVLVAGDGADNIGKQSGGWTISWQGTGNRNDEFPGATSILGGIRDAVADAGGSVEFDVAGQYKTKPDVAIVVFGEEPYAEFQGDVETLEYQPDQKQDLTLLKKLKDQGIPVVAVFLSGRPMWVNPELNASDAFVAAWLPGTEGGGVADVLFTDKAGKVQHDFAGKLSYSWPRTAAQTTVNRGDADYNPLFAYGYGLTYKDKSKVGTLPEESGVPAEARQNAGIYFRAGALRLPGRFL
Fold improvement over Control Variant No. 5 from Table 2A: +++ (+++ = 6 to 13 fold improvement over control Variant No. 2)
